# Like-named read-outs stand apart in the source and are kept apart here.
# Legend:
# human HER2 receptor [1] = biological target: T1, human HER2 receptor (human, UniProt P04626); experiment: ELISA on human HER2 receptor, purified VHH titrated, A450
# human HER2 receptor [2] = biological target: T1, human HER2 receptor; experiment: as above; remark: listed apart in the source
# human HER2 receptor [3] = biological target: T1, human HER2 receptor; experiment: as above; remark: listed apart in the source
# human HER2 receptor [4] = biological target: T1, human HER2 receptor; experiment: ELISA specificity panel on ErbB family receptors, VHH titrated, A450
# human HER2 receptor [5] = biological target: T1, human HER2 receptor; experiment: as above; remark: listed apart in the source
# human HER2 receptor [6] = biological target: T1, human HER2 receptor; experiment: as above; remark: listed apart in the source
# human HER2 receptor [7] = biological target: T1, human HER2 receptor; experiment: ELISA on human HER2 receptor, purified VHH titrated, A450; remark: listed apart in the source
# human HER2 receptor [8] = biological target: T1, human HER2 receptor; experiment: as above; remark: listed apart in the source
# human HER2 receptor [9] = biological target: T1, human HER2 receptor; experiment: as above; remark: listed apart in the source
# human HER2 receptor [10] = biological target: T1, human HER2 receptor; experiment: as above; remark: listed apart in the source
# human HER2 receptor [11] = biological target: T1, human HER2 receptor; experiment: as above; remark: listed apart in the source
binder,measurement,setting,value
"VHH_118 (VHH, also called VHH ID 118) VHH: EVQLVESGGGLVQPGGSLRLSCAASEFTFSNYAMSWVRQAPGKGLEWVSAINWSGGITTYADSVKGRFTISRDNAKNTLHLQMNSLKPEDTAVYYCAKGWGTTTRDTGLLSQGTLVTVSS",EC50 (read off the curve),human HER2 receptor [1],~6 nM
"VHH_123 (VHH, also called VHH ID 123) VHH: QVQLVESGGGLVQAGGSLRLSCAASGRTFNSYFYTMAWFRQAPGKEREFVARMNWNADSTYHADSVKGRFTISRENTVYLQMNSLEPEDTAVYYCAAKSISAPKYDYWGQGTQVTVSS",binding result,human HER2 receptor [2],no binding
"VHH_108 (VHH, also called VHH ID 108) VHH: QVQLVESGGGLVQAGGSLRLSCAASGRTFSSYAMGWFRQAPGLEREFVAAIARGGVSTGYADSVKGRFAISRDNAKNMVYLQMNSLKPEDTAVYYCATYFWGSPHYWGQGTQVTVSS",EC50 (read off the curve),human HER2 receptor [3],~6 nM
"VHH_130 (VHH, also called VHH ID 130) VHH: EVQLVESGGGLVQAGGSLRLSCAASGITFSINTMGWYRQAPGKQRELVALISSIGDTYYADSVRGRFTISRDNAKNTVYLQMNSLKPEDTAVYYCRRFRTAAQGTDYWGQGTQVTVSS",EC50 (read off the curve),human HER2 receptor [4],~1 nM
same,EC50 (read off the curve),human HER2 receptor [5],~1 nM
same,EC50 (read off the curve),human HER2 receptor [6],~1 nM
"VHH_129 (VHH, also called VHH ID 129) VHH: EVQLVESGGGLVQAGGSLRLSCAASGITFSINTMGWYRQAPGKQRELVALISSIGDTYYADSVKGRFTISRDNAKNTVYLQMNSLKPEDTAVYYCRRFRTAAQGTDYWGQGTQVTVSS",EC50 (read off the curve),human HER2 receptor [7],~1 nM
"VHH_134 (VHH, also called VHH ID 134) VHH: EVQLVESGGGLVQAGGSLRLSCAASGITFSINTMGWYRQAPGKQRELVALISSIGDTYYADSVRGRFTISRDNARNTVYLQMNSLRPEDTAVYYCRRFRTAAQGTDYWGQGTQVTVSS",EC50 (read off the curve),human HER2 receptor [8],~1 nM
"VHH_110 (VHH, also called VHH ID 110) VHH: QVQLVESGGGSVQLGGSLRLSCAVSGLGFSALAMGWFRQAPGKERERVAAISRTGGTTYYTDSVKGRFTISRDNGKNMVYLQMNSLKPEDAAVYYCASRYTALLSTTARGYDYWGQGTQVTVSS",binding result,human HER2 receptor [9],no binding
"VHH_109 (VHH, also called VHH ID 109) VHH: QVQLVESGGGLVQPGGSLRLSCEASGFTFDDYGMSWVRQAPGKGLEWVSGITWNGGNPNYADSVKGRFTISRDNAKRTLYLQMNSLKAEDTAVYYCQRGYSRGYMYWGQGTQVTVSS",EC50 (read off the curve),human HER2 receptor [10],~10 nM
"VHH_107 (VHH, also called VHH ID 107) VHH: QVQLVESGGGLVQPGGSLRLSCAASGSIFSINVMGWYRQAPGMQRQLVAIITSGGSTNYADSVKGRFTVSRDNAKNTLYLRMNSLKPEDTAVYYCATIHVRESTWYYAYWGQGTQVTVSS",EC50 (read off the curve),human HER2 receptor [11],~3 nM
